Source: US20210347891A1
Blank lines part the entries; values can stand above or below the substance they belong to.

Key:
[1] = target: dimeric human FcRn-β2m-GST (human) (UniProt P55899); experiment: FACS of E. coli spheroplasts displaying the IgG, 50 nM dFcRn-GST-APC at pH 7.4
[2] = target: single chain FcRn-β2m-his (human scFcRn, Acro Biosystems Cat. No. FCM-H5286) (human) (UniProt P55899); experiment: FACS of E. coli spheroplasts displaying the IgG, 10 nM scFcRn-FITC at pH 5.8
[3] = target: single chain FcRn-β2m-his (human scFcRn, Acro Biosystems Cat. No. FCM-H5286) (human) (UniProt P55899); experiment: SPR, antibody on CM5 chip, scFcRn 400-25 nM, pH 5.8 PBS, 1:1 Langmuir
[4] = target: single chain FcRn-β2m-his (human scFcRn, Acro Biosystems Cat. No. FCM-H5286) (human) (UniProt P55899); experiment: SPR, antibody on CM5 chip, FcRn/β2m injected, pH 5.8 (same values as Table 5)
[5] = target: dimeric FcγRIIb-GST (human) (human) (UniProt P31994); experiment: SPR, antibody on CM5 chip, receptor injected, pH 7.4 HBS-EP
[6] = target: dimeric FcγRIIIa-F158-GST (human) (human) (UniProt P08637); experiment: as above
[7] = target: monomeric FcγRI-His (human) (human) (UniProt P12314); experiment: as above
[8] = target: dimeric FcγRIIa-H131-GST (human) (human) (UniProt P12318); experiment: as above
[9] = target: dimeric FcγRIIa-R131-GST (human) (human) (UniProt P12318); experiment: as above
[10] = target: dimeric FcγRIIa-R131-GST (human) (human) (UniProt P12318); experiment: ELISA: antibody coated, serially diluted GST-FcγRIIaR131 (the concentration is that of the receptor), anti-GST HRP
C1q = C1q (UniProt P02745); experiment: SPR, antibody on CM5 chip, C1q injected, pH 7.4 HBS-EP
[11] = target: dimeric FcγRIIb-GST (human) (human) (UniProt P31994); experiment: ELISA: antibody coated, serially diluted GST-FcγRIIb (the concentration is that of the receptor), anti-GST HRP
[12] = target: single chain FcRn-β2m-his (human scFcRn, Acro Biosystems Cat. No. FCM-H5286) (human) (UniProt P55899); experiment: SPR, antibody on CM5 chip, scFcRn, pH 5.8
[13] = target: single chain FcRn-β2m-his (human scFcRn, Acro Biosystems Cat. No. FCM-H5286) (human) (UniProt P55899); experiment: SPR, antibody on CM5 chip, scFcRn 400-25 nM, pH 5.8 PBS
[14] = target: single chain FcRn-β2m-his (human scFcRn, Acro Biosystems Cat. No. FCM-H5286) (human) (UniProt P55899); experiment: SPR at pH 7.4 PBS, scFcRn on CM5 chip at high density (4000 RU), antibody 400-25 nM injected
[15] = target: dimeric human FcRn-β2m-GST (human) (UniProt P55899); experiment: ELISA at pH 7.4: antibody coated, serially diluted dFcRn (the concentration is that of dFcRn), anti-GST HRP
[16] = target: single chain FcRn-β2m-his (human scFcRn, Acro Biosystems Cat. No. FCM-H5286) (human) (UniProt P55899); experiment: SPR at pH 7.4 PBS, scFcRn on CM5 chip at medium density (2000 RU), antibody 400-25 nM injected

Sequence of monomeric FcγRI-His (human) (human) (P12314 16-288 limits assumed): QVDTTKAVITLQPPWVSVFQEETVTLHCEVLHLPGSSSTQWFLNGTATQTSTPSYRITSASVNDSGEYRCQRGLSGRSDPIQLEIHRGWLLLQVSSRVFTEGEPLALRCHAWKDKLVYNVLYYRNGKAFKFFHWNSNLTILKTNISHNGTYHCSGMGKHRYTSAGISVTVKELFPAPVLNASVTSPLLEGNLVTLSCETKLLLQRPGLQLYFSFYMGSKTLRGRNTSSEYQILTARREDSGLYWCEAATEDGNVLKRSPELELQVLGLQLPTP
Sequence of dimeric human FcRn-β2m-GST (human) (P55899 other isoform, or with tags, fused parts or gaps limits assumed): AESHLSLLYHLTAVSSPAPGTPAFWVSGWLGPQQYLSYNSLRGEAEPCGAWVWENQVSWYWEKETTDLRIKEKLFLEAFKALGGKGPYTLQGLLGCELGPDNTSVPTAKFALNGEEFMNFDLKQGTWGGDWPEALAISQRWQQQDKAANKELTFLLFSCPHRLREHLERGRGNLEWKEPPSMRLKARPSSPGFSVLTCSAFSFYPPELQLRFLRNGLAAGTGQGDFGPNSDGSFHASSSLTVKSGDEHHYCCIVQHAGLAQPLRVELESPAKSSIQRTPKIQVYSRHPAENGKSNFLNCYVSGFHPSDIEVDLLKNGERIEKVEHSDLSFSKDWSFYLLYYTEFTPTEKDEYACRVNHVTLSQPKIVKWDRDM
Sequence of single chain FcRn-β2m-his (human scFcRn, Acro Biosystems Cat. No. FCM-H5286) (human) (P55899 other isoform, or with tags, fused parts or gaps): as the sequence (P55899 other isoform, or with tags, fused parts or gaps limits assumed) above
Sequence of dimeric FcγRIIa-R131-GST (human) (human) (P12318 34-218 H167R limits assumed): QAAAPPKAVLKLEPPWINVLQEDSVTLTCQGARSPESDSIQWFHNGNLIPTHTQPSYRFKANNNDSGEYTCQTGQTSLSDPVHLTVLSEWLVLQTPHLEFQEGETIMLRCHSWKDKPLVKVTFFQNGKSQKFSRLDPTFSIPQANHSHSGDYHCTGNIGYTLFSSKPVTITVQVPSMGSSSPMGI
Sequence of dimeric FcγRIIb-GST (human) (human) (P31994 43-217 limits assumed): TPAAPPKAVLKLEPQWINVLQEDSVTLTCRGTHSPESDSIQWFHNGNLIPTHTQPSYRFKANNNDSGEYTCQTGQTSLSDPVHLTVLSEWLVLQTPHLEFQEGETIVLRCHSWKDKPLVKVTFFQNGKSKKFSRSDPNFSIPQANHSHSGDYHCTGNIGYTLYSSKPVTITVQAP
Sequence of dimeric FcγRIIa-H131-GST (human) (human) (P12318 34-218 limits assumed): as the sequence (P12318 34-218 H167R limits assumed) above, with R134H counted along it
Sequence of C1q (P02745 23-245 limits assumed, chain 1 of 3): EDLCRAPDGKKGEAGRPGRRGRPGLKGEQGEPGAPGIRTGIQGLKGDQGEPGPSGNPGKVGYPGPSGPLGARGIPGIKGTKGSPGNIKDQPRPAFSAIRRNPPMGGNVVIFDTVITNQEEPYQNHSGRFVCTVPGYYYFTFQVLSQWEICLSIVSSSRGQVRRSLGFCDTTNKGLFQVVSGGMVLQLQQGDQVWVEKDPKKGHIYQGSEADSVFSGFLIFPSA
Sequence of C1q (P02746 28-253 limits assumed, chain 2 of 3, further chain): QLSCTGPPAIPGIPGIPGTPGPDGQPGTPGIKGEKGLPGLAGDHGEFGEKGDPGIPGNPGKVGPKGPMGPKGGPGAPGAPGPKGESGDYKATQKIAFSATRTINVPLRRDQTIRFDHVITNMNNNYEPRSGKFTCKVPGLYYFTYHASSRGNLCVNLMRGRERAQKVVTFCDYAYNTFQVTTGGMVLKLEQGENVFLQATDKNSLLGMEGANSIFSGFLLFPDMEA
Sequence of C1q (P02747 29-245 limits assumed, chain 3 of 3, further chain): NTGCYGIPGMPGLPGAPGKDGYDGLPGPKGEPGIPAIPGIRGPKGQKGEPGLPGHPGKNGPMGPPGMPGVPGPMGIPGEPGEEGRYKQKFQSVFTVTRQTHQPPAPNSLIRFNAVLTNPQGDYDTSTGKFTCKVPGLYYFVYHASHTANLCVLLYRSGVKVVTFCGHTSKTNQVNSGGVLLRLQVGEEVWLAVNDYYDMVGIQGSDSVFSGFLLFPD
Sequence of dimeric FcγRIIIa-F158-GST (human) (human) (P08637 17-208 limits assumed): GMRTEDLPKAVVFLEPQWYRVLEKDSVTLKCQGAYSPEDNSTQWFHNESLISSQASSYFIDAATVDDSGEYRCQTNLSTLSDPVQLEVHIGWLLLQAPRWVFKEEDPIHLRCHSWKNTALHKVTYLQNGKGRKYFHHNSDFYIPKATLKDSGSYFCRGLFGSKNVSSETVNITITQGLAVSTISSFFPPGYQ
Sequence of Herceptin-IgG4 (wild type IgG4 with the Fab of trastuzumab) (antibody) (Fc): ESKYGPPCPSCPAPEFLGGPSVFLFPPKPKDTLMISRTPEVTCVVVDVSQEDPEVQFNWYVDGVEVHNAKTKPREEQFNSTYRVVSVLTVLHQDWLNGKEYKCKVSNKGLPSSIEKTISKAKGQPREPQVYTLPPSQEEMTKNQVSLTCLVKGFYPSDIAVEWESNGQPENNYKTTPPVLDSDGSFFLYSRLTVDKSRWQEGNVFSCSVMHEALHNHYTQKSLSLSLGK

Substance: EDH (V264E, L309D, and Q311H), IgG displayed on E. coli spheroplasts (antibody)
- M (mean fluorescence intensity) [1]: 20.4
- M (mean fluorescence intensity) [2]: 135

Substance: EDHS (V264E, L309D, Q311H, and N434S), IgG displayed on E. coli spheroplasts (antibody)
- M (mean fluorescence intensity) [1]: 60.3
- M (mean fluorescence intensity) [2]: 239

Substance: EDHY (V264E, L309D, Q311H, and N434Y), IgG displayed on E. coli spheroplasts (antibody)
- M (mean fluorescence intensity) [1]: 379
- M (mean fluorescence intensity) [2]: 265

Substance: Herceptin-DHS (L309D; Q311H; N434S) (antibody)
- Kd [3]: 111 nM
- Kd [4]: 110 nM
- Kd [5]: 2910 nM
- Kd [6]: 480 nM
- Kd [7]: 0.28 nM
- Kd [8]: 270 nM
- Kd [9]: 950 nM
- EC50 (read off the curve) [10]: 7 nM
- Kd (C1q): 25 nM
- EC50 (read off the curve) [11]: 4 nM

Substance: Herceptin-EDH (V264E, L309D, Q311H) (antibody)
- Kd [3]: 487 nM
- koff [3]: 0.23 s⁻¹
- kon [3]: 465000 M⁻¹ s⁻¹

Substance: Herceptin-IgG4 (wild type IgG4 with the Fab of trastuzumab) (antibody)
- Kd [13]: 2460 nM

Substance: Herceptin-YTE (M252Y/S254T/T256E) (antibody)
- Kd [3]: 23 nM
- Kd [4]: 23 nM
- Kd [5]: 6240 nM
- Kd [6]: 4410 nM
- Kd [7]: 0.29 nM
- Kd [8]: 620 nM
- Kd [9]: 3200 nM
- Kd [14]: 4290 nM
- Kd [16]: 4730 nM
- Kd (C1q): 42 nM

Results, then the substance that gave them:

- Kd [3]: 93 nM
- koff [3]: 0.11 s⁻¹
- kon [3]: 1.2e+06 M⁻¹ s⁻¹
- fold enhanced affinity than Herceptin [12]: 5.9 fold
Substance: Herceptin-EDHS (V264E, L309D, Q311H, N434S) (antibody)

- Kd [3]: 28 nM
- koff [3]: 0.038 s⁻¹
- kon [3]: 1.4e+06 M⁻¹ s⁻¹
- fold enhanced affinity than Herceptin [12]: 19.6 fold
Substance: Herceptin-EDHY (V264E, L309D, Q311H, N434Y) (antibody)

- Kd [3]: 55 nM
- Kd [4]: 55 nM
- Kd [5]: 2250 nM
- Kd [7]: 0.58 nM
- Kd [8]: 410 nM
- Kd [9]: 1210 nM
- Kd [14]: 22.7 nM
- EC50 (read off the curve) [15]: 10 nM
- Kd [16]: 58.7 nM
- Kd (C1q): 16 nM
Substance: Herceptin-LS (M428L/N434S) (antibody)

- M (mean fluorescence intensity) [1]: 83.3
- M (mean fluorescence intensity) [2]: 152
Substance: M428L/N434S (antibody)

- M (mean fluorescence intensity) [1]: 237
- M (mean fluorescence intensity) [2]: 231
Substance: TEDHY (A231T, V264E, L309D, Q311H, and N434Y), IgG displayed on E. coli spheroplasts (antibody)
